For experiment [1], the target named is T1, biotinylated B7-H3 (B7-H3b), immune checkpoint protein.
T1 sequence (Q5ZPR3 whole entry, species assumed, looked up): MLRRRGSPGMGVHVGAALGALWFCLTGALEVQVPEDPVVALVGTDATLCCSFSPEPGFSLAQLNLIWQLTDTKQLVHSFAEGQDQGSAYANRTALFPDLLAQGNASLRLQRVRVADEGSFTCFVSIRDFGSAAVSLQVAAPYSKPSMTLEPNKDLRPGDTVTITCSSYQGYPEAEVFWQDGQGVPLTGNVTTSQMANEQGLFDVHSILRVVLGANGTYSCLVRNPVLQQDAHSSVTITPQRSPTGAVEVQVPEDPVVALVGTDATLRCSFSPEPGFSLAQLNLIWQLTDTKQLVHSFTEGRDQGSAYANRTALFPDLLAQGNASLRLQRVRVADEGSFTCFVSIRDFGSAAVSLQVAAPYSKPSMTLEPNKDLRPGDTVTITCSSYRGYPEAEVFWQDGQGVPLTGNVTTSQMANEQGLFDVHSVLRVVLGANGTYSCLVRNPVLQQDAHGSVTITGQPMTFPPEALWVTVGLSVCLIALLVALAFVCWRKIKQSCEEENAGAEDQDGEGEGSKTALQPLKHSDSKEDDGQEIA
In words: SPR (BIACORE 8K, single-cycle kinetics, 1:1 fit); biotinylated B7-H3 on a NeutrAvidin chip, peptide as analyte at 7.5-120 nM.

The target is the same in experiment [2]. In words: SPR, biotinylated B7-H3 on NeutrAvidin chip, peptide as analyte. Background: SPR reads the build-up and loss of mass on a sensor chip optically.

B1: Met9Nle variant of B1.1 (methionine to norleucine variant of the selected cyclic, disulfide peptide) (peptide)
peptide: WALQLCHSXFYTCKSG
modifications: norleucine (Nle) at position 9; N-terminal acetylation (ac); lactam bridge Q4-K14; disulfide bond C6-C13
As usually defined, the koff is the first-order rate constant of dissociation. The term kon denotes a measure of how fast the partners come together. High values mean fast association, low ones slow association. One may read the Kd as the free concentration of one partner at which half of the binding sites on the other are occupied at equilibrium, for simple one-to-one binding. Low values mean higher affinity, high ones lower affinity. In experiment [1], B1 came in with a koff of 0.0448 s⁻¹ and a kon of 955000 M⁻¹ s⁻¹. The Kd in experiment [2] came out at 0.0469 µM.

The values are drawn from patent US20260191974A1, “B7-H3 TARGETING LIGANDS AND METHODS OF USE” (The University of North Carolina at Chapel Hill, priority 2022, published 2026).
